Source: publication PMC6857237

Experiments:
[1] = molecular target: Olfm1^BMY (olfactomedin-1 natural short isoform BMY, residues 17–153), disulfide-linked tetramer (mouse (Mus musculus)); test: SAXS; ESRF BM29, 0.615 mg/mL in SEC buffer (150 mM NaCl, 2 mM CaCl2, 20 mM HEPES pH 7.5), 277 K; mass from I0
[2] = molecular target: Olfm1^BMY (olfactomedin-1 natural short isoform BMY, residues 17–153), disulfide-linked tetramer (mouse (Mus musculus)); test: non-reducing SDS-PAGE; Coomassie-stained SDS-PAGE of purified protein with and without DTT; covalent (disulfide-linked) oligomeric state
[3] = molecular target: Olfm1^BMY (olfactomedin-1 natural short isoform BMY, residues 17–153), disulfide-linked tetramer (mouse (Mus musculus)); test: SEC-MALS; analytical Superdex200 Increase 10/300, room temperature, SEC buffer (150 mM NaCl, 2 mM CaCl2, 20 mM HEPES pH 7.5), 0.5 mL/min; aldolase as calibration standard

Measured: stoichiometry N

Sequence of Olfm1^BMY (olfactomedin-1 natural short isoform BMY, residues 17–153), disulfide-linked tetramer (natural protein) (O88998 17-485): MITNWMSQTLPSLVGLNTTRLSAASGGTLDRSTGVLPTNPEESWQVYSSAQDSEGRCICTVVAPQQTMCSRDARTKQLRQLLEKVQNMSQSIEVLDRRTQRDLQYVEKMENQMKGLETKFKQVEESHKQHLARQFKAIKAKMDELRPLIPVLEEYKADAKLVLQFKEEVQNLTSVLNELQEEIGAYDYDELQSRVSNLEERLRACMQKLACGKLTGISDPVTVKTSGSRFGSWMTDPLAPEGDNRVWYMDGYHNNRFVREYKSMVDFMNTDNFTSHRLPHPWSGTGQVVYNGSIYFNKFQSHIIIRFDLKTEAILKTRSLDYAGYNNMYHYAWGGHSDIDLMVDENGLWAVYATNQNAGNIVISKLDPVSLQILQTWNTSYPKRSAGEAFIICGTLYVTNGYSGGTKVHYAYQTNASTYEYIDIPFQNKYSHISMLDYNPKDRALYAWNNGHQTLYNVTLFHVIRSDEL

Olfm1^BMY (olfactomedin-1 natural short isoform BMY, residues 17–153), disulfide-linked tetramer (natural protein)
4: all assays above
